Experimental data: PMC4439027, “Selection of scFv Antibody Fragments Binding to Human Blood versus Lymphatic Endothelial Surface Antigens by Direct Cell Phage Display” (PLoS ONE, 2015)

How the values were obtained:
[1] = target: T1, CD146 / MCAM on BECs and melanoma cells (Homo sapiens, UniProt P43121-1); experiment: immunostaining of cells or tissue; immunofluorescence on fixed cells (BECs, LECs, HDMECs, melanoma cells) and human skin cryosections, co-staining with anti-podoplanin or commercial anti-CD146 antibody; conditions: one partner purified
T1 construct: also called native CD146; CD146 expressed by BECs, melanoma cells; source: endogenous, on BECs and melanoma cell lines A375, CRL1676, HTB71 (fixed monolayers)

[2] = target: T2, Recombinant human CD146 comprising the extracellular Met1-Gly559 portion of the protein precursor, C-terminal … (Homo sapiens, UniProt P43121-1); experiment: ELISA; plates coated with recombinant CD146 or BSA at 100, 10 and 1 ng/ml overnight at 4°C, blocked with TBST/ 5% BSA; scFv or scFv-Fc added serially diluted, RT overnight; HRP-conjugated detection antibodies, absorbance at 450 nm; conditions: both partners purified
T2 construct: signal peptide in the construct; human CD146 / MCAM / MUC18, extracellular Met1-Gly559 portion of the protein precursor (NP_006491.2); also called recombinant CD146; extracellular domain of recombinant human CD146; source: bought: Sino Biological Inc., Nr; 10115-H08H

[3] = target: T1, CD146 / MCAM on BECs and melanoma cells; experiment: ELISA; whole cell ELISA on confluent monolayers in 96-well plates fixed with PBS/ 1% PFA; purified scFv or scFv-Fc added; absorbance at 450 nm; conditions: one partner purified
[4] = target: T3, CD146 of BEC lysate treated with PNGase F (N-linked oligosaccharides removed) (Homo sapiens, UniProt P43121-1, oligosaccharides removed from N-linked glycoprotein with PNGase F); experiment: co-IP; BEC lysate incubated with scFv or scFv-Fc (or Fc only) at 4°C overnight, captured on Protein A/G resin; Western blot in reducing conditions with commercial anti-CD146 antibody; lysates with or without PNGase F, before or after addition of the scFv; conditions: one partner purified
T3 construct: human CD146 / MCAM (NP_006491), endogenous in primary human blood endothelial cells, after PNGase F; band shifted down to 95 kDa; PNGase F was added before or after the scFv; also called deglycosylated CD146; source: endogenous, BEC lysate, treated with PNGase F (3 hrs at 37°C)
T3 sequence (P43121 24-646): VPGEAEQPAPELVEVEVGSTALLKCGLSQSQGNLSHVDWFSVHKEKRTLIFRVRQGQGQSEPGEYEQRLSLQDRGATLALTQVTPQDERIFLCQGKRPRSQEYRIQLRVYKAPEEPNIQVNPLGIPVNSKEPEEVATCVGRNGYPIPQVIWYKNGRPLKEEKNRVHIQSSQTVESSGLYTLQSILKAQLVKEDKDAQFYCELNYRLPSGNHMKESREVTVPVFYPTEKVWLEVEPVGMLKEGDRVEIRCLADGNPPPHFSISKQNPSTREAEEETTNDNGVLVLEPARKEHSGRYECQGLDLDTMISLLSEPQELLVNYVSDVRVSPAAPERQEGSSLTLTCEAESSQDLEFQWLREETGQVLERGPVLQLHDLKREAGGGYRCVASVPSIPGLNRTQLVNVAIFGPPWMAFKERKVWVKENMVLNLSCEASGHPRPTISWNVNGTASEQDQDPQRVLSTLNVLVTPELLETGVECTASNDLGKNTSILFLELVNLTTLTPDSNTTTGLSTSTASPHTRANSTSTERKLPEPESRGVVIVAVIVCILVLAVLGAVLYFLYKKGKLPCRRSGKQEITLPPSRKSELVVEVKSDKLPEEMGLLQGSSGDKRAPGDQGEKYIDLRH

T2 sequence (P43121 24-559): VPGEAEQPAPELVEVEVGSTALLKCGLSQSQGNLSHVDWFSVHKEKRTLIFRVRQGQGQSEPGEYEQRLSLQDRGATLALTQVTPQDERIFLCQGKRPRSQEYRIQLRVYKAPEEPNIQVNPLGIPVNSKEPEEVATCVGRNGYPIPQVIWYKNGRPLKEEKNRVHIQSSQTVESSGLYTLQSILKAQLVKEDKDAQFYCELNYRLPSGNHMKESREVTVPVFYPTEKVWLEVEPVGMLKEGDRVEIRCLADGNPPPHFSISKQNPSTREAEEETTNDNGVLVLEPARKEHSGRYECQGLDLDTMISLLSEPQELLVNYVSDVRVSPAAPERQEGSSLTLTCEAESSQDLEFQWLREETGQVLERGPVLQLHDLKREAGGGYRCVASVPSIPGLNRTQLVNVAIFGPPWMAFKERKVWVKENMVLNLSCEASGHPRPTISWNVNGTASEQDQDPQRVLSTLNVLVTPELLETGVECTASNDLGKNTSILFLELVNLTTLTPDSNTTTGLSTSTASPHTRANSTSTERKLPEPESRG
T1 sequence (P43121 24-646): as the sequence (P43121 24-646) above

B1: scFv-Fc B6-11 fusion antibody (Fc fusion, human)
VH: EVQLVESGGGLVQGGSLRLSCAASGFTFSSYAMSWVRQAPGKGLEWVSAISGSGGSTYYADSVKGRFTISRDNSKNTLYLQMNSLRAEDTAVYYCAKSSNVRTFDYWGQGTLVTVSR
VL: SSELTQDPAVSVALGQTVRITCQGDSLRSYYASWYQQKPGQAPVLVIYGKNNRPSGIPDRFSGSSSGNTASLTITGAQAEDEADYYCNSSTPLSAPVVFGGGTKLTVL
notes: Runs as a dimer under non-reducing SDS-PAGE; the Fc is that of the vector pFUSE-mIgG2B-Fc2 (Invivogen); also called scFv-mFc fusion antibody; source: HEK293, transfected (pFUSE-mIgG2B-Fc2), purified from culture supernatants (proteinAG UltraLink Resin); not shown: Fc (murine IgG2B), C-terminal, kept
- binding result [1]: binds
- binding result [2]: binds

B2: scFv B6-11 (scFv, V domains shown)
VH: EVQLVESGGGLVQGGSLRLSCAASGFTFSSYAMSWVRQAPGKGLEWVSAISGSGGSTYYADSVKGRFTISRDNSKNTLYLQMNSLRAEDTAVYYCAKSSNVRTFDYWGQGTLVTVSR
VL: SSELTQDPAVSVALGQTVRITCQGDSLRSYYASWYQQKPGQAPVLVIYGKNNRPSGIPDRFSGSSSGNTASLTITGAQAEDEADYYCNSSTPLSAPVVFGGGTKLTVL
notes: VH of scFv B6-11 (ETH-2 library, human germline heavy chain segment with randomised CDR3); linker region; VL of scFv B6-11 (ETH-2 library, human germline light chain segment with randomised CDR3); Selected from the semi-synthetic human ETH-2 phage library on BECs (round 6); His-tag and Flag-tag come from phagemid pDN332; also called scFv B6-11 antibody; anti-CD146 scFv B6-11; source: E. coli TG1, …
- binding result [3]: binds
- binding result [2]: binds
- binding result [4]: binds
